# Experimental data published in IntAct's records for PubMed 20543817.
# Experiments:
# [1] = target: nlgnx_human NLGN4X (UniProt Q8N0W4)
# [2] = target: Nlgn1, Q62765-2
# [3] = target: nlgnx_human NLGN4X (UniProt Q8N0W4); remark: listed apart in the source
# [4] = target: Nlgn1, Q62765-2; remark: listed apart in the source
# [5] = target: nlgnx_human NLGN4X (UniProt Q8N0W4); remark: listed apart in the source
# [6] = target: Nlgn1, Q62765-2; remark: listed apart in the source
# [7] = target: Nlgn1, Q62765-2; remark: listed apart in the source
# [8] = target: nlgnx_human NLGN4X (UniProt Q8N0W4); remark: listed apart in the source
# Sequence of Nlgn1, Q62765-2 (Q62765 other isoform, or with tags, fused parts or gaps): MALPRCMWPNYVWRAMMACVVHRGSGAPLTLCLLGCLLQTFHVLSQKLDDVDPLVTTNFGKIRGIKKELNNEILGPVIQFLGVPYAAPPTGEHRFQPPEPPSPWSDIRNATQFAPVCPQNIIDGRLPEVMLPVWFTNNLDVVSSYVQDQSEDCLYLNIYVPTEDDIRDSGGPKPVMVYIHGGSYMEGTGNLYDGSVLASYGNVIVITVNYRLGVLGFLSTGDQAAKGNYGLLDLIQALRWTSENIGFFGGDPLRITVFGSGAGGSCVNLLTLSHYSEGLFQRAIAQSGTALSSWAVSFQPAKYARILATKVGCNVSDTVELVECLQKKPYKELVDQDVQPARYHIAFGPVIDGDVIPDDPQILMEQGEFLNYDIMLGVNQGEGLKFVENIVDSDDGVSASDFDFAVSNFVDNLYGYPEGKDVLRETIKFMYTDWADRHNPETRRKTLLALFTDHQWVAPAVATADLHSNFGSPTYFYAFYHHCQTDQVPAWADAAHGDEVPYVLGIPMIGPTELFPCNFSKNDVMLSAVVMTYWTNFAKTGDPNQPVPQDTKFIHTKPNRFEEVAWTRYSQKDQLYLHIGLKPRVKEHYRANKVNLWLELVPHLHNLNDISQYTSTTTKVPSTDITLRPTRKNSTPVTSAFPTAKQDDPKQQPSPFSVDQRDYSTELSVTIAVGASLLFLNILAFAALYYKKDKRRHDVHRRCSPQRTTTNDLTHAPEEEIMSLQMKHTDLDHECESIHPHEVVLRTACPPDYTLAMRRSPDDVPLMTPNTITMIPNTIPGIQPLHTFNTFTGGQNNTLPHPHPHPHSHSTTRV
# Sequence of Neurexin-1-beta (Rattus norvegicus (Rat)), Q63373-3 N103A (Q63373 other isoform, or with tags, fused parts or gaps N103A): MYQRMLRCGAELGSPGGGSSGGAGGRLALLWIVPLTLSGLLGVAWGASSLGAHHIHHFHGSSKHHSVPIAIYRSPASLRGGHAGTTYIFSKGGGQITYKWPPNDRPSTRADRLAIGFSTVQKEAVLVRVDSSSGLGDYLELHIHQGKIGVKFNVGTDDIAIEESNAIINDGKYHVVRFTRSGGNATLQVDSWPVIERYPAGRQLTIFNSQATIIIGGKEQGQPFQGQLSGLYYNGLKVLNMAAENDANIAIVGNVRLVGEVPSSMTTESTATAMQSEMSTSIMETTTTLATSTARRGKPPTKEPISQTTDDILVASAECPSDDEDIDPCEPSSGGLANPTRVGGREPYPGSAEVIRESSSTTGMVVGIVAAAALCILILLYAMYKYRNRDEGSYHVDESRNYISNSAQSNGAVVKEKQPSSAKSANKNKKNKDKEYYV
# Sequence of Neurexin-1-beta (Rattus norvegicus (Rat)), Q63373-3 I206A (Q63373 other isoform, or with tags, fused parts or gaps I206A): as the sequence (Q63373 other isoform, or with tags, fused parts or gaps N103A) above
# Sequence of Neurexin-1-beta (Rattus norvegicus (Rat)), Q63373-3 R202A (Q63373 other isoform, or with tags, fused parts or gaps R202A): as the sequence (Q63373 other isoform, or with tags, fused parts or gaps N103A) above
# Sequence of Neurexin-1-beta (Rattus norvegicus (Rat)), Q63373-3 R109A (Q63373 other isoform, or with tags, fused parts or gaps R109A): as the sequence (Q63373 other isoform, or with tags, fused parts or gaps N103A) above
substance,measurement,setting,value
"Neurexin-1-beta (Rattus norvegicus (Rat)), Q63373-3 R109A",effect of a mutation on the interaction,[1],disrupting interaction
same,effect of a mutation on the interaction,[2],decreasing interaction
"Neurexin-1-beta (Rattus norvegicus (Rat)), Q63373-3 I206A",effect of a mutation on the interaction,[3],disrupting interaction
same,effect of a mutation on the interaction,[4],disrupting interaction
"Neurexin-1-beta (Rattus norvegicus (Rat)), Q63373-3 N103A",effect of a mutation on the interaction,[5],decreasing interaction
same,effect of a mutation on the interaction,[6],decreasing interaction
"Neurexin-1-beta (Rattus norvegicus (Rat)), Q63373-3 R202A",effect of a mutation on the interaction,[7],decreasing interaction
same,effect of a mutation on the interaction,[8],disrupting interaction
